Reference: patent publication US20030166587A1 (SIGNAL PHARMACEUTICALS, published 2003)
Non-standard residues stand in square brackets, D forms with d. No end group written: not given here. pS = N[C@@H](COP(=O)(O)O)C(=O)O

Molecular target: specific IκB E3 ubiquitin ligase activity of HeLa extract
Assay: cell-based or functional assay

| IC50 of inhibition of pIκBα ubiquitination (in vitro ubiquitination assay in HeLa extract) [µM] | Binder |
| --- | --- |
| 5 | CDDRHD[pS]GLD[pS]MKDEE [pp15, doubly phosphorylated IκBα peptide] |
| 400 | CKKERLLDDRHD[pS]GLDSMKDEE [ppS32, singly phosphorylated IκBα peptide] |
| 5 | CDDRHD[pS]GLD[pS]M [pp11, doubly phosphorylated IκBα peptide] |
| 400 | CKKERLLDDRHDSGLD[pS]MKDEE [ppS36, singly phosphorylated IκBα peptide] |
| 10 | CD[pS]GLD[pS]M [pp7, doubly phosphorylated IκBα peptide (minimal size peptide tested)] |
